Data reported in patent US20100150902A1 (published 2010).

How the values were obtained:
[1] = molecular target: T1, human CD151 protein (human, UniProt P48509 1-253); test: flow cytometry, 10 µg/ml antibody on A549 cells
T1 construct: whole, on cells; in HT-29 cell lysate in the Western blots; also called PETA-3; SFA-1
T1 sequence (looked up): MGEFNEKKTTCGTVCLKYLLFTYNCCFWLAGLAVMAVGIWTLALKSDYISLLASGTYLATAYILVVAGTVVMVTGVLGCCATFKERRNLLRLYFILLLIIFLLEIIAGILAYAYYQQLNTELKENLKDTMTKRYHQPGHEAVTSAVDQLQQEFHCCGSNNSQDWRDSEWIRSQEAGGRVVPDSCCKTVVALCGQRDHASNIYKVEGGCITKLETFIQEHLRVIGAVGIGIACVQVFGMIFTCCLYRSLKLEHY
Description: (§1) The flow cytometry analyses are carried out on 96-well plates. The undiluted hybridoma supernatants are added to 100000 PC3 cells previously introduced into the wells. After incubation for 20 minutes at +4° C. followed by washing, an Alexa488-labelled goat anti-mouse IgG polyclonal antibody (Molecular Probes, dilution to 1/500) is added. The fluorescence intensity (MFI) is determined with the aid of a cytofluorimeter after further incubation for 20 minutes at +4° C.
(§2) The isotypes of the antibodies produced were determined for each culture supernatant using a murine antibody isotyping kit (SBA clonotyping system, Southern Biotech), and then final characterisation was carried out by ELISA (extracellular loop EC2) and by flow cytometry on the murine line NIH 3T3 and the stable transfectant NIH 3T3-CD151, and then on human tumour lines of lung cancer A549, prostate cancer DU145 and pancreatic cancer BxPC3 under the conditions previously described. The antibody concentration of the supernatants was adjusted to 5 μg/ml for the ELISA and to 10 μg/ml for the flow cytometry analyses.

[2] = molecular target: T1, human CD151 protein; test: flow cytometry, 10 µg/ml antibody on BxPC3 cells
Description: as §1, §2

[3] = molecular target: T1, human CD151 protein; test: flow cytometry, 10 µg/ml antibody on DU145 cells
Description: as §1, §2

[4] = molecular target: T1, human CD151 protein; test: flow cytometry, undiluted hybridoma supernatant on PC3 cells
Description: as §1

[5] = molecular target: T1, human CD151 protein; test: flow cytometry, 10 µg/ml antibody on NIH3T3-CD151 transfectant cells
Description: as §1, §2

[6] = molecular target: T2, recombinant extracellular loop EC2 of human CD151 (amino acids 130 to 221, C-terminal Poly-His tail) (human, UniProt P48509 130-221); test: ELISA, clone supernatant at 5 µg/ml antibody on coated recombinant EC2 loop
T2 construct: range 130-221; Expressed in soluble form in the periplasm of E. coli from pET22b and purified by IMAC; also called recombinant EC2; recombinant EC2 loop; not shown: Poly-His tail at the C-terminal position
T2 sequence (looked up): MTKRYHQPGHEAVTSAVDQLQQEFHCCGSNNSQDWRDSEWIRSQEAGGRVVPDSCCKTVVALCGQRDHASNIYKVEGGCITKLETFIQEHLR

[7] = molecular target: T2, recombinant extracellular loop EC2 of …; test: ELISA, undiluted hybridoma supernatant on coated recombinant EC2 loop (5 µg/ml)
Description: For the ELISA, 96-well plates are sensitised for 1 night at +4° C. with the recombinant extracellular loop EC2 at 5 μg/ml in PBS. After washing with PBS, the wells are saturated with 0.5% gelatin solution in PBS for 1 hour at 37° C. and then washed again with PBS. The hybridoma culture supernatants are evaluated without dilution (incubation for 1 hour at 37° C.). The antibodies fixed to the immobilised EC2 loop are detected by successive incubation with a peroxidase-conjugated goat anti-mouse IgG polyclonal antibody (Jackson/USA, dilution to 1/5000, 1 hour at 37° C.) and then with a peroxidase substrate (TMB, Interchim/France, 10 minutes at ambient temperature). The reaction is stopped by addition of 1M sulfuric acid and the optical density (OD) is measured at 450 nm.

[8] = molecular target: T1, human CD151 protein; test: saturation binding of 125I-labelled antibody to PC3 cells, 1 hour at 4°C, Scatchard analysis
Description: The affinity of the 2 radiolabelled antibodies for their CD151 target on the cell surface was then measured for PC3 prostate cancer cells. The dissociation constant KD of the antibodies was determined by the method of Scatchard. […] After incubation, the total radioactivity associated with the cells (fixed radiolabelled antibody) was measured using a gamma counter. The non-specific fixing was determined, for each concentration tested, in the presence of an excess of non-radiolabelled antibody (×100). The specific fixing is calculated by subtracting the non-specific radioactivity from the total radioactivity.

[9] = molecular target: T2, recombinant extracellular loop EC2 of …; test: competition ELISA on coated recombinant EC2; competitor murine 214B2 at 80 ng/ml, detected with anti-mouse IgG
Description: (§3) Briefly, 96-well ELISA plates were coated with recombinant EC2 at 5 μg/ml in PBS overnight at 4° C. […] For control experiments, no murine antibody was added. Horseradish peroxidase-conjugated polyclonal goat anti-mouse IgG was added at a 1/5000 dilution in PBS and incubated for 1 h at 37° C. After incubation with the peroxidase substrate TMB for 10 min at room temperature, the reaction was stopped with 1 M sulfuric acid and the optical density at 450 nm was measured.

[10] = molecular target: T2, recombinant extracellular loop EC2 of …; test: competition ELISA on coated recombinant EC2; competitor murine 203B6 at 80 ng/ml, detected with anti-mouse IgG
Description: as §3

Binder | MFI [1] [MFI] | MFI [2] [MFI] | MFI [3] [MFI] | MFI [4] [MFI] | MFI [5] [MFI] | OD at 450 nm [6] [OD at 450 nm] | OD 450 nm [7] [OD 450 nm] | Kd [8] [nM] | IC50 [9] [µg/mL] | IC50 [10] [µg/mL]
murine monoclonal antibody 203B6 (hybridoma CNCM I-3920) (antibody, mouse IgG1, V domains shown, also called 203B6 cl1A; [125I]-203B6) VH: EVKLVESGGGLVQPGGSLKLSCAASGFTFSTYTMSWVRQTPEKRLEWVAYISSGGGTTYYPDTVKGRFTISRDNARNTLYLQMNSLKSEDTAMYYCATPRIGTGFAYWGQGTLVTVSA VL: DIVLSQSPASLALSLGQRATISCRASASVEYYGTSLMHWYQQKPGQPPKLLIYEASNVESGVPARFSGSGSGTDFSLNIHPVEEDDLAIYFCQQSRKAPYTFGGGTKLEIK | 675 | 768 | 860 | 975 | 540 | 2.22 | 1.13 | 12.8 | – | –
murine monoclonal antibody 211F3 (hybridoma CNCM I-3918) (antibody, mouse IgG1, V domains shown, also called 211F3 cl1A) VH: EVKLVESGGDLVQPGGSLKLSCAASGFTFSTYTMSWVRQTPEKRLEWVAYISSGGVTTYYPDTIKGRFTISRDNAKNTLFLQMNSLKSEDTAMYYCTSPRTGTGFAYWGQGTLVTVSA VL: DIVLTQSPASLALSLGQRATISCRASASVDYYGTSLMQWYQQKPGQPPKLLIYEASNVESGVPARFSGSGSGTDFSLNIHPVEEDDLAIYFCQQSRKAPYTFGGGTKLEIK | 481 | 536 | 524 | 936 | 556 | 2.3 | 0.959 | – | – | –
murine monoclonal antibody 205H8 (hybridoma CNCM I-3921) (antibody, mouse IgG3, V domains shown, also called 205H8 cl1A) VH: not shown VL: DIVMTQSQKFMSTSEGDRVSITCKASQNVGIAVAWYQQKPGQSPKLLIYSASNRYTGVPDRFTGSGSGTDFTLTISNMQSEDLADYFCQQYSSNPTFGAGTKLELK | 388 | 350 | 584 | 595 | 332 | 1.84 | 0.649 | – | – | –
murine monoclonal antibody 214B2 (hybridoma CNCM I-3919) (antibody, mouse IgG1, V domains shown, also called 214B2 cl1A; [125I]-214B2) VH: QVQLQQPGSVLVRPGASVKLSCKASGYTFTSSSMHWAKQRPGQGLEWIGEIHPNSGNTNNNEKFKGKATLTVDTSSSTAYVDLSSLSSEDSAVYYCARARSFYYAMDCWGQGTSVTVSS VL: NIVMTQSPKSMSMSVGERVTLSCKASENVGTYVSWYQQKPEQSPKLLIYGASNRYTGVPDRFTGSGSATDFTLTISSVQAEDLADYHCGQTYSFPYTFGGGTKLEIK | 820 | 849 | 1330 | 1000 | 748 | 2.48 | 0.684 | 6.38 | – | –
chimeric antibody c214B2[IgG1] (antibody, V domains shown, Variable domains of murine 214B2 fused to human Ckappa and human IgG1 constant domains; made in HEK293/EBNA cells; VL' and 'IgG1 Chim) VH: QVQLQQPGSVLVRPGASVKLSCKASGYTFTSSSMHWAKQRPGQGLEWIGEIHPNSGNTNNNEKFKGKATLTVDTSSSTAYVDLSSLSSEDSAVYYCARARSFYYAMDCWGQGTSVTVSS VL: NIVMTQSPKSMSMSVGERVTLSCKASENVGTYVSWYQQKPEQSPKLLIYGASNRYTGVPDRFTGSGSATDFTLTISSVQAEDLADYHCGQTYSFPYTFGGGTKLEIKR | – | – | – | – | – | – | – | – | 0.69 | –
chimeric antibody c203B6[IgG1] (antibody, V domains shown, Variable domains of murine 203B6 fused to human Ckappa and human IgG1 constant domains; made in HEK293/EBNA cells; VL' and 'IgG1 Chim) VH: EVKLVESGGGLVQPGGSLKLSCAASGFTFSTYTMSWVRQTPEKRLEWVAYISSGGGTTYYPDTVKGRFTISRDNARNTLYLQMNSLKSEDTAMYYCATPRIGTGFAYWGQGTLVTVSA VL: DIVLSQSPASLALSLGQRATISCRASASVEYYGTSLMHWYQQKPGQPPKLLIYEASNVESGVPARFSGSGSGTDFSLNIHPVEEDDLAIYFCQQSRKAPYTFGGGTKLEIKR | – | – | – | – | – | – | – | – | – | 0.71
